Stoichiometry N data for three substances are collected here from doi:10.1101/2022.07.14.500127.

Experiment [1] has as its target Vip3Aa Domain I-Domain III truncation variant (Bacillus thuringiensis (Bt 9816C)). The experiment can be described thus: SEC + other: protein thermal shift.
In experiment [2] the target is trypsin-activated DI-DIII of Vip3Aa (DI-DIII^act) (Bacillus thuringiensis (Bt 9816C)). Description: SEC. Background: SEC sorts molecules by how far they enter the pores of the column.
For experiment [3], the target named is Vip3Aa protoxin (full-length vegetative insecticidal protein Vip3Aa) (Bacillus thuringiensis (Bt 9816C)). The experiment can be described thus: SEC + other: dynamic light scattering.

As to “Vip3Aa Domain I-Domain III truncation variant (domain or fragment)”, in experiment [1], the stoichiometry N (in general, a count of units in the complex or per binding partner) turned out to be 4.

With “trypsin-activated DI-DIII of Vip3Aa (DI-DIII^act) (complex)”, the stoichiometry N in experiment [2] was 4.

In the case of “Vip3Aa protoxin (full-length vegetative insecticidal protein Vip3Aa) (natural protein)”, in experiment [3], the stoichiometry N came out at 4.
